First the molecules themselves.
B1: full-length untagged FleQ (FleQ^FL) (natural protein)
chain: not shown
notes: FleQ, P. aeruginosa PAO1 (amplified from genomic DNA), residues 1-490 covering the full-length protein; untagged, from pRSFDuet1*; also called FleQ^1-490; wild-type FleQ; source: E. coli BL21 Star (DE3), coexpressed with His6-FleN variants; in lysate (IMAC co-purification) and purified as complex (IMAC, SEC) for cryo-EM
B2: full-length FleN^D48A (His6 tag cleaved) (natural protein)
chain: MKQMGSMHPVQVIAVTGGKGGVGKTNVSVNLALALADLGRRVMLLDAALGLANVDVLLGLTPKRTLADVIEGRCELRDVLLLGPGGVRIVPAASGTQSMVHLSPMQHAGLIQAFSDISDNLDVLVVDTAAGIGDSVVSFVRAAQEVLLVVCDEPTSITDAYALIKLLNRDHGMTRFRVLANMAHSPQEGRNLFAKLTKVTDRFLDVALQYVGVIPYDESVRKAVQKQRAVYEAFPRSKASLAFKAVAQKVDSWPLPANPRGHLEFFVERLVQHPATGSAV
notes: FleN, P. aeruginosa PAO1, full-length with D48A; pProEx-Htb-cloned, tag cleaved by HRV3c protease; source: E. coli BL21 Star (DE3), coexpressed with FleQ^REC-AAA+, purified as complex (IMAC, HRV3c cleavage, SEC); not shown: His6, N-terminal, cleaved
B3: His6-tagged full-length FleN^D48A (tag not cleaved) (natural protein)
chain: MKQMGSMHPVQVIAVTGGKGGVGKTNVSVNLALALADLGRRVMLLDAALGLANVDVLLGLTPKRTLADVIEGRCELRDVLLLGPGGVRIVPAASGTQSMVHLSPMQHAGLIQAFSDISDNLDVLVVDTAAGIGDSVVSFVRAAQEVLLVVCDEPTSITDAYALIKLLNRDHGMTRFRVLANMAHSPQEGRNLFAKLTKVTDRFLDVALQYVGVIPYDESVRKAVQKQRAVYEAFPRSKASLAFKAVAQKVDSWPLPANPRGHLEFFVERLVQHPATGSAV
notes: pProEx-Htb-cloned; source: E. coli BL21 Star (DE3), coexpressed with FleQ^FL, purified as complex (IMAC, SEC), without tag cleavage; not shown: His6, N-terminal, kept
B4: FleQ receiver and ATPase domain tandem (FleQ^REC-AAA+) (domain or fragment)
chain: not shown
notes: FleQ, P. aeruginosa PAO1, residues 1-394 (REC and AAA+ domains); untagged, from pRSFDuet1*; also called FleQ^1-394; HTH-truncated FleQ; source: E. coli BL21 Star (DE3), coexpressed with His6-FleN variants; in lysate (IMAC co-purification) and purified as complex (IMAC, SEC) for cryo-EM

Data set [1] addresses B3. Briefly: cryo-EM structure; c-di-GMP-free complex, coexpressed and co-purified (IMAC, SEC), with AppCp (100 uM); 20 mM HEPES pH 8.0, 250 mM NaCl, 2 mM MgCl2, 2% glycerol; C2 symmetry. The conditions noted are these: both partners purified.
Data set [2] concerns the molecule itself. The description is as above.
In data set [3] the target is B4. The experiment in a line: cryo-EM structure; c-di-GMP-bound complex, coexpressed and co-purified (IMAC, tag cleavage, SEC with 2 uM c-di-GMP); 200 uM AppCp and 4 uM c-di-GMP before grid preparation. The conditions noted are these: both partners purified.
Data set [4] deals with the molecule itself. The description is as above.
The target of data set [5] is B1. The experiment in a line: cryo-EM structure; c-di-GMP-free complex, coexpressed and co-purified (IMAC, SEC), with AppCp (100 uM); 20 mM HEPES pH 8.0, 250 mM NaCl, 2 mM MgCl2, 2% glycerol; C2 symmetry. The conditions noted are these: both partners purified.
Data set [6] addresses B2. Briefly: cryo-EM structure; c-di-GMP-bound complex, coexpressed and co-purified (IMAC, tag cleavage, SEC with 2 uM c-di-GMP); 200 uM AppCp and 4 uM c-di-GMP before grid preparation. The conditions noted are these: both partners purified.

The values that follow come from publication PMC10723142, “Structures of the P. aeruginosa FleQ-FleN master regulators reveal large-scale conformational switching in motility and biofilm control” (Proceedings of the National Academy of Sciences of the …, 2023).

B1: the “stoichiometry N” value in data set [1] was 2 FleQ per FleN (4:2). Besides, the binding result in data set [2] is listed as “binds”.
As for B2, the binding result in data set [3] and in data set [4] was “binds” in each case.
As for B3, the binding result in data set [5] and in data set [2] was “binds” throughout.
Consider B4, for which the “stoichiometry N” value in data set [6] was 1.5 FleQ per FleN (3:2). Moreover, the binding result in data set [4] was “binds”.

One may read the stoichiometry N as a count of units in the complex or per binding partner.
